Assay results taken from patent US11325966.

How the values were obtained:
Assay in all cases: cell-based or functional assay
[1] = target: HIV-1 Env of pseudovirus ZM53M.PB12 (HIV-1)
[2] = target: HIV-1 Env of pseudovirus 263-8 (HIV-1)
[3] = target: HIV-1 Env of pseudovirus 620345.c01 (HIV-1)
[4] = target: HIV-1 Env of pseudovirus CNE19 (HIV-1)
[5] = target: HIV-1 Env of pseudovirus CNE17 (HIV-1)
[6] = target: HIV-1 Env of pseudovirus 3301.v1.c24 (HIV-1)
[7] = target: HIV-1 Env of pseudovirus CNE20 (HIV-1)
[8] = target: HIV-1 Env of pseudovirus Ce0393_C3 (HIV-1)
[9] = target: HIV-1 Env of pseudovirus 6480.v4.c25 (HIV-1)
[10] = target: HIV-1 Env of pseudovirus Du156.12 (HIV-1)
[11] = target: HIV-1 Env of pseudovirus 246F C1G (HIV-1)
[12] = target: HIV-1 Env of pseudovirus 6535.3 (HIV-1)
[13] = target: HIV-1 Env of pseudovirus BF1266.431a (HIV-1)
[14] = target: HIV-1 Env of pseudovirus HIV-16845-2.22 (HIV-1)
[15] = target: HIV-1 Env of pseudovirus T255-34 (HIV-1)
[16] = target: HIV-1 Env of pseudovirus CNE5 (HIV-1)
[17] = target: HIV-1 Env of pseudovirus X1193_c1 (HIV-1)
[18] = target: HIV-1 Env of pseudovirus ZM214M.PL15 (HIV-1)
[19] = target: HIV-1 Env of pseudovirus 3817.v2.c59 (HIV-1)
[20] = target: HIV-1 Env of pseudovirus T251-18 (HIV-1)
[21] = target: HIV-1 Env of pseudovirus 89-F1_2_25 (HIV-1)
[22] = target: HIV-1 Env of pseudovirus T278-50 (HIV-1)
[23] = target: HIV-1 Env of pseudovirus R2184.c04 (HIV-1)
[24] = target: HIV-1 Env of pseudovirus P1981_C5_3 (HIV-1)
[25] = target: HIV-1 Env of pseudovirus Du422.1 (HIV-1)
[26] = target: HIV-1 Env of pseudovirus 1056_10_TA11_1826 (HIV-1)
[27] = target: HIV-1 Env of pseudovirus 6540.v4.c1 (HIV-1)
[28] = target: HIV-1 Env of pseudovirus A07412M1.vrc12 (HIV-1)
[29] = target: HIV-1 Env of pseudovirus Ce703010054_2A2 (HIV-1)
[30] = target: HIV-1 Env of pseudovirus R3265.c06 (HIV-1)
[31] = target: HIV-1 Env of pseudovirus SC422661.8 (HIV-1)
[32] = target: HIV-1 Env of pseudovirus HIV-001428-2.42 (HIV-1)
[33] = target: HIV-1 Env of pseudovirus ZM197M.PB7 (HIV-1)
[34] = target: HIV-1 Env of pseudovirus CNE30 (HIV-1)
[35] = target: HIV-1 Env of pseudovirus Q769.d22 (HIV-1)
[36] = target: HIV-1 Env of pseudovirus 0815.v3.c3 (HIV-1)
[37] = target: HIV-1 Env of pseudovirus 6244_13_B5_4576 (HIV-1)
[38] = target: HIV-1 Env of pseudovirus CAP210.2.00.E8 (HIV-1)
[39] = target: HIV-1 Env of pseudovirus WITO4160.33 (HIV-1)
[40] = target: HIV-1 Env of pseudovirus CAAN5342.A2 (HIV-1)

## 354BG8 (antibody)
[1]
  IC50 in TZM-bl assay: > 10 µg/mL
  IC80 in TZM-bl assay: > 10 µg/mL
[2]
  IC50 in TZM-bl assay: 0.416 µg/mL
  IC80 in TZM-bl assay: 5.71 µg/mL
[3]
  IC50 in TZM-bl assay: > 10 µg/mL
  IC80 in TZM-bl assay: > 10 µg/mL
[4]
  IC50 in TZM-bl assay: 0.075 µg/mL
  IC80 in TZM-bl assay: > 10 µg/mL
[5]
  IC50 in TZM-bl assay: 1.18 µg/mL
  IC80 in TZM-bl assay: 4.85 µg/mL
[6]
  IC50 in TZM-bl assay: 0.018 µg/mL
  IC80 in TZM-bl assay: 0.049 µg/mL
[7]
  IC50 in TZM-bl assay: 2 ng/mL
  IC80 in TZM-bl assay: 5 ng/mL
[8]
  IC50 in TZM-bl assay: > 10 µg/mL
  IC80 in TZM-bl assay: > 10 µg/mL
[9]
  IC50 in TZM-bl assay: 0.006 µg/mL
  IC80 in TZM-bl assay: 0.023 µg/mL
[10]
  IC50 in TZM-bl assay: 10 ng/mL
  IC80 in TZM-bl assay: 0.036 µg/mL
[11]
  IC50 in TZM-bl assay: 0.035 µg/mL
  IC80 in TZM-bl assay: 0.119 µg/mL
[12]
  IC50 in TZM-bl assay: 7 ng/mL
  IC80 in TZM-bl assay: 0.022 µg/mL
[13]
  IC50 in TZM-bl assay: > 10 µg/mL
  IC80 in TZM-bl assay: > 10 µg/mL
[14]
  IC50 in TZM-bl assay: 0.727 µg/mL
  IC80 in TZM-bl assay: 3.93 µg/mL
[15]
  IC50 in TZM-bl assay: > 10 µg/mL
  IC80 in TZM-bl assay: > 10 µg/mL
[16]
  IC50 in TZM-bl assay: > 10 µg/mL
  IC80 in TZM-bl assay: > 10 µg/mL
[17]
  IC50 in TZM-bl assay: 0.07 µg/mL
  IC80 in TZM-bl assay: 0.207 µg/mL
[18]
  IC50 in TZM-bl assay: 0.415 µg/mL
  IC80 in TZM-bl assay: 2.97 µg/mL
[19]
  IC50 in TZM-bl assay: 0.706 µg/mL
  IC80 in TZM-bl assay: 4.49 µg/mL
[20]
  IC50 in TZM-bl assay: 0.399 µg/mL
  IC80 in TZM-bl assay: 2.29 µg/mL
[21]
  IC50 in TZM-bl assay: > 10 µg/mL
  IC80 in TZM-bl assay: > 10 µg/mL
[22]
  IC50 in TZM-bl assay: 1.71 µg/mL
  IC80 in TZM-bl assay: > 10 µg/mL
[23]
  IC50 in TZM-bl assay: > 10 µg/mL
  IC80 in TZM-bl assay: > 10 µg/mL
[24]
  IC50 in TZM-bl assay: 4 ng/mL
  IC80 in TZM-bl assay: 0.013 µg/mL
[25]
  IC50 in TZM-bl assay: 0.047 µg/mL
  IC80 in TZM-bl assay: 0.113 µg/mL
[26]
  IC50 in TZM-bl assay: 0.038 µg/mL
  IC80 in TZM-bl assay: 0.168 µg/mL
[27]
  IC50 in TZM-bl assay: > 10 µg/mL
  IC80 in TZM-bl assay: > 10 µg/mL
[28]
  IC50 in TZM-bl assay: 0.011 µg/mL
  IC80 in TZM-bl assay: 0.037 µg/mL
[29]
  IC50 in TZM-bl assay: > 10 µg/mL
  IC80 in TZM-bl assay: > 10 µg/mL
[30]
  IC50 in TZM-bl assay: > 10 µg/mL
  IC80 in TZM-bl assay: > 10 µg/mL
[31]
  IC50 in TZM-bl assay: 0.058 µg/mL
  IC80 in TZM-bl assay: 0.368 µg/mL
[32]
  IC50 in TZM-bl assay: 0.035 µg/mL
  IC80 in TZM-bl assay: 0.126 µg/mL
[33]
  IC50 in TZM-bl assay: > 10 µg/mL
  IC80 in TZM-bl assay: > 10 µg/mL
[34]
  IC50 in TZM-bl assay: 0.261 µg/mL
  IC80 in TZM-bl assay: 0.678 µg/mL
[35]
  IC50 in TZM-bl assay: > 10 µg/mL
  IC80 in TZM-bl assay: > 10 µg/mL
[36]
  IC50 in TZM-bl assay: 0.043 µg/mL
  IC80 in TZM-bl assay: 0.197 µg/mL
[37]
  IC50 in TZM-bl assay: 0.091 µg/mL
  IC80 in TZM-bl assay: 0.38 µg/mL
[38]
  IC50 in TZM-bl assay: > 10 µg/mL
  IC80 in TZM-bl assay: > 10 µg/mL
[39]
  IC50 in TZM-bl assay: 0.111 µg/mL
  IC80 in TZM-bl assay: 0.828 µg/mL
[40]
  IC50 in TZM-bl assay: 5 ng/mL
  IC80 in TZM-bl assay: 0.019 µg/mL

## BG18 IgG (354BG18) (antibody)
[1]
  IC50 in TZM-bl assay: > 30 µg/mL
  IC80 in TZM-bl assay: > 30 µg/mL
[2]
  IC50 in TZM-bl assay: 1.38 µg/mL
  IC80 in TZM-bl assay: 7.55 µg/mL
[3]
  IC50 in TZM-bl assay: > 30 µg/mL
  IC80 in TZM-bl assay: > 30 µg/mL
[4]
  IC50 in TZM-bl assay: > 30 µg/mL
  IC80 in TZM-bl assay: > 30 µg/mL
[5]
  IC50 in TZM-bl assay: 0.02 µg/mL
  IC80 in TZM-bl assay: 0.109 µg/mL
[6]
  IC50 in TZM-bl assay: 0.025 µg/mL
  IC80 in TZM-bl assay: 0.082 µg/mL
[7]
  IC50 in TZM-bl assay: 2 ng/mL
  IC80 in TZM-bl assay: 6 ng/mL
[8]
  IC50 in TZM-bl assay: > 30 µg/mL
  IC80 in TZM-bl assay: > 30 µg/mL
[9]
  IC50 in TZM-bl assay: 0.016 µg/mL
  IC80 in TZM-bl assay: 0.116 µg/mL
[10]
  IC50 in TZM-bl assay: 3 ng/mL
  IC80 in TZM-bl assay: 0.01 µg/mL
[11]
  IC50 in TZM-bl assay: 0.034 µg/mL
  IC80 in TZM-bl assay: 0.257 µg/mL
[12]
  IC80 in TZM-bl assay: 0.005 µg/mL
[13]
  IC50 in TZM-bl assay: > 30 µg/mL
  IC80 in TZM-bl assay: > 30 µg/mL
[14]
  IC50 in TZM-bl assay: 0.019 µg/mL
  IC80 in TZM-bl assay: 0.09 µg/mL
[15]
  IC50 in TZM-bl assay: > 30 µg/mL
  IC80 in TZM-bl assay: > 30 µg/mL
[16]
  IC50 in TZM-bl assay: > 30 µg/mL
  IC80 in TZM-bl assay: > 30 µg/mL
[17]
  IC50 in TZM-bl assay: 0.005 µg/mL
  IC80 in TZM-bl assay: 0.022 µg/mL
[18]
  IC50 in TZM-bl assay: > 30 µg/mL
  IC80 in TZM-bl assay: > 30 µg/mL
[19]
  IC50 in TZM-bl assay: 0.219 µg/mL
  IC80 in TZM-bl assay: 1.06 µg/mL
[20]
  IC50 in TZM-bl assay: 0.086 µg/mL
  IC80 in TZM-bl assay: 0.328 µg/mL
[21]
  IC50 in TZM-bl assay: > 30 µg/mL
  IC80 in TZM-bl assay: > 30 µg/mL
[22]
  IC50 in TZM-bl assay: 2.95 µg/mL
  IC80 in TZM-bl assay: 12.9 µg/mL
[23]
  IC50 in TZM-bl assay: > 30 µg/mL
  IC80 in TZM-bl assay: > 30 µg/mL
[24]
  IC50 in TZM-bl assay: 6 ng/mL
  IC80 in TZM-bl assay: 0.019 µg/mL
[25]
  IC50 in TZM-bl assay: 0.009 µg/mL
  IC80 in TZM-bl assay: 0.057 µg/mL
[26]
  IC50 in TZM-bl assay: 0.007 µg/mL
  IC80 in TZM-bl assay: 0.045 µg/mL
[27]
  IC50 in TZM-bl assay: 28.2 µg/mL
  IC80 in TZM-bl assay: > 30 µg/mL
[28]
  IC50 in TZM-bl assay: 0.081 µg/mL
  IC80 in TZM-bl assay: 1.72 µg/mL
[29]
  IC50 in TZM-bl assay: > 30 µg/mL
  IC80 in TZM-bl assay: > 30 µg/mL
[30]
  IC50 in TZM-bl assay: > 30 µg/mL
  IC80 in TZM-bl assay: > 30 µg/mL
[31]
  IC50 in TZM-bl assay: 0.005 µg/mL
  IC80 in TZM-bl assay: 0.021 µg/mL
[32]
  IC50 in TZM-bl assay: 0.004 µg/mL
  IC80 in TZM-bl assay: 0.021 µg/mL
[33]
  IC50 in TZM-bl assay: > 30 µg/mL
  IC80 in TZM-bl assay: > 30 µg/mL
[34]
  IC50 in TZM-bl assay: 0.019 µg/mL
  IC80 in TZM-bl assay: 0.059 µg/mL
[35]
  IC50 in TZM-bl assay: > 30 µg/mL
  IC80 in TZM-bl assay: > 30 µg/mL
[36]
  IC50 in TZM-bl assay: 0.16 µg/mL
  IC80 in TZM-bl assay: 5.96 µg/mL
[37]
  IC50 in TZM-bl assay: 0.011 µg/mL
  IC80 in TZM-bl assay: 0.049 µg/mL
[38]
  IC50 in TZM-bl assay: 3.47 µg/mL
  IC80 in TZM-bl assay: 10.7 µg/mL
[39]
  IC50 in TZM-bl assay: 0.018 µg/mL
  IC80 in TZM-bl assay: 0.25 µg/mL
[40]
  IC50 in TZM-bl assay: 8 ng/mL
  IC80 in TZM-bl assay: 0.04 µg/mL
